Series [1] deals with MCF7. Briefly: percentage of EdU-negative (G0-arrested) nuclei per well, 72 h; higher = more G0 arrest. The following applies: reference: sequence is the full UniProt precursor, the tested protein was the secreted form or ectodomain.
Series [2] has as its system hTERT-HMEC. The description is as above. The following applies: reference: sequence is the full UniProt precursor, the tested protein was the secreted form or ectodomain.
The mark [3] stands for this setting: protein concentration 0.0225 µM.
The mark [4] stands for this setting: protein concentration 0.0171429 µM.
The mark [5] stands for this setting: protein concentration 0.171429 µM.
[6] abbreviates: protein concentration 0.03125 µM.
Where [7] appears, read: protein concentration 0.3125 µM.
Where [8] appears, read: protein concentration 0.0175 µM.
[9] abbreviates: protein concentration 0.02075 µM.
The mark [10] stands for this setting: protein concentration 0.2075 µM.

± gives the standard deviation of the averaged measurements.
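Also: secreted proteins added to cultured cells, EdU pulse at the end, nuclei found by Hoechst imaging, EdU status from nuclear versus surrounding ring intensity ratio, PBS as neutral control.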

Regarding “MTPPPPGRAAPSAPRARVPGPPARLGLPLRLRLLLLLWAAAASAQGHLRSGPRIFAVWKGHVGQDRVDFGQTEPHTVLFHEPGSSSVWVGGRGKVYLFDFPEGKNASVRTVNIGSTKGSCLDKRDCENYITLLERRSEGLLACGTNARHPSCWNLVNGTVVPLGEMRGYAPFSPDENSLVLFEGDEVYSTIRKQEYNGKIPRFRRIRGESELYTSDTVMQNPQFIKATIVHQDQAYDDKIYYFFREDNPDKNPEAPLNVSRVAQLCRGDQGGESSLSVSKWNTFLKAMLVCSDAATNKNFNRLQDVFLLPDPSGQWRDTRVYGVFSNPWNYSAVCVYSLGDIDKVFRTSSLKGYHSSLPNPRPGKCLPDQQPIPTETFQVADRHPEVAQRVEPMGPLKTPLFHSKYHYQKVAVHRMQASHGETFHVLYLTTDRGTIHKVVEPGEQEHSFAFNIMEIQPFRRAAAIQTMSLDAERRKLYVSSQWEVSQVPLDLCEVYGGGCHGCLMSRDPYCGWDQGRCISIYSSERSVLQSINPAEPHKECPNPKPDKAPLQKVSLAPNSRYYLSCPMESRHATYSWRHKENVEQSCEPGHQSPNCILFIENLTAQQYGHYFCEAQEGSYFREAQHWQLLPEDGIMAEHLLGHACALAASLWLGVLPTLTLGLLVH”, the “percentage of EdU-negative” value in series [1] (setting [3]) was 24.7 ± 2.4%; in series [1] (protein concentration 0.225 µM), 25.6 ± 1.6%; in series [2] (setting [3]), 4.66 ± 0.25%; in series [2] (protein concentration 0.225 µM), 5.49 ± 0.49%.

Consider “MTPPRLFWVWLLVAGTQGVNDGDMRLADGGATNQGRVEIFYRGQWGTVCDNLWDLTDASVVCRALGFENATQALGRAAFGQGSGPIMLDEVQCTGTEASLADCKSLGWLKSNCRHERDAGVVCTNETRSTHTLDLSRELSEALGQIFDSQRGCDLSISVNVQGEDALGFCGHTVILTANLEAQALWKEPGSNVTMSVDAECVPMVRDLLRYFYSRRIDITLSSVKCFHKLASAYGARQLQGYCASLFAILLPQDPSFQMPLDLYAYAVATGDALLEKLCLQFLAWNFEALTQAEAWPSVPTDLLQLLLPRSDLAVPSELALLKAVDTWSWGERASHEEVEGLVEKIRFPMMLPEELFELQFNLSLYWSHEALFQKKTLQALEFHTVPFQLLARYKGLNLTEDTYKPRIYTSPTWSAFVTDSSWSARKSQLVYQSRRGPLVKYSSDYFQAPSDYRYYPYQSFQTPQHPSFLFQDKRVSWSLVYLPTIQSCWNYGFSCSSDELPVLGLTKSGGSDRTIAYENKALMLCEGLFVADVTDFEGWKAAIPSALDTNSSKSTSSFPCPAGHFNGFRTVIRPFYLTNSSGVD”, for which the “percentage of EdU-negative” value is 23.8 ± 3.7% in series [1] (setting [4]), 27.9 ± 1.7% in series [1] (setting [5]), 6.12 ± 0.82% in series [2] (setting [4]) and 8.84 ± 1.8% in series [2] (setting [5]).

With “MTPSRLPWLLSWVSATAWRAARSPLLCHSLRKTSSSQGGKSELVKQSLKKPKLPEGRFDAPEDSHLEKEPLEKFPDDVNPVTKEKGGPRGPEPTRYGDWERKGRCIDF [Q5VUM1]”, the “percentage of EdU-negative” value in series [1] (setting [3]) was determined as 28 ± 2.2%; in series [1] (protein concentration 0.225 µM), 25.4 ± 1.5%; in series [2] (setting [3]) it was 5.46 ± 0.82%; in series [2] (protein concentration 0.225 µM), 5.79 ± 0.17%.

Take “MTRALCSALRQALLLLAAAAELSPGLKCVCLLCDSSNFTCQTEGACWASVMLTNGKEQVIKSCVSLPELNAQVFCHSSNNVTKTECCFTDFCNNITLHLPTASPNAPKLGPMELAIIITVPVCLLSIAAMLTVWACQGRQCSYRKKKRPNVEEPLSECNLVNAGKTLKDLIYDVTASGSGSGLPLLVQRTIARTIVLQEIVGKGRFGEVWHGRWCGEDVAVKIFSSRDERSWFREAEIYQTVMLRHENILGFIAADNKDNGTWTQLWLVSEYHEQGSLYDYLNRNIVTVAGMIKLALSIASGLAHLHMEIVGTQGKPAIAHRDIKSKNILVKKCETCAIADLGLAVKHDSILNTIDIPQNPKVGTKRYMAPEMLDDTMNVNIFESFKRADIYSVGLVYWEIARRCSVGGIVEEYQLPYYDMVPSDPSIEEMRKVVCDQKFRPSIPNQWQSCEALRVMGRIMRECWYANGAARLTALRIKKTISQLCVKEDCKA [Q8NER5]”: the “percentage of EdU-negative” value is 24.6 ± 0.8% in series [1] (setting [6]), 26 ± 0.41% in series [1] (setting [7]), 4.41 ± 0.6% in series [2] (setting [6]) and 4.47 ± 0.65% in series [2] (setting [7]).

For “MTRGGPGGRPGLPQPPPLLLLLLLLPLLLVTAEPPKPAGVYYATAYWMPAEKTVQVKNVMDKNGDAYGFYNNSVKTTGWGILEIRAGYGSQTLSNEIIMFVAGFLEGYLTAPHMNDHYTNLYPQLITKPSIMDKVQDFMEKQDKWTRKNIKEYKTDSFWRHTGYVMAQIDGLYVGAKKRAILEGTKPMTLFQIQFLNSVGDLLDLIPSLSPTKNGSLKVFKRWDMGHCSALIKVLPGFENILFAHSSWYTYAAMLRIYKHWDFNVIDKDTSSSRLSFSSYPGFLESLDDFYILSSGLILLQTTNSVFNKTLLKQVIPETLLSWQRVRVANMMADSGKRWADIFSKYNSGTYNNQYMVLDLKKVKLNHSLDKGTLYIVEQIPTYVEYSEQTDVLRKGYWPSYNVPFHEKIYNWSGYPLLVQKLGLDYSYDLAPRAKIFRRDQGKVTDTASMKYIMRYNNYKKDPYSRGDPCNTICCREDLNSPNPSPGGCYDTKVADIYLASQYTSYAISGPTVQGGLPVFRWDRFNKTLHQGMPEVYNFDFITMKPILKLDIK [Q6P4A8]”, the “percentage of EdU-negative” value was 25.6 ± 2.5% in series [1] (setting [8]), 27.7 ± 0.8% in series [1] (protein concentration 0.175 µM), 4.42 ± 0.062% in series [2] (setting [8]) and 19.7 ± 1.7% in series [2] (protein concentration 0.175 µM).

Consider “MTRTYENFQYLENKVKVQGFKNGPLPLQSLLQRLCSGPCHLLLSLGLGLLLLVIICVVGFQNSKFQRDLVTLRTDFSNFTSNTVAEIQALTSQGSSLEETIASLKAEVEGFKQERQAGVSELQEHTTQKAHLGHCPHCPSVCVPVHSEMLLRVQQLVQDLKKLTCQVATLNNNASTEGTCCPVNWVEHQDSCYWFSHSGMSWAEAEKYCQLKNAHLVVINSREEQNFVQKYLGSAYTWMGLSDPEGAWKWVDGTDYATGFQNWKPGQPDDWQGHGLGGGEDCAHFHPDGRWNDDVCQRPYHWVCEAGLGQTSQESH [Q8IUN9]”, for which the “percentage of EdU-negative” value in series [1] (setting [3]) was 24.9 ± 1%; in series [1] (protein concentration 0.225 µM), 26.5 ± 0.74%; in series [2] (setting [3]), 5.25 ± 0.3%; in series [2] (protein concentration 0.225 µM), 4.954 ± 0.011%.

“MTSHYVIAIFALMSSCLATAGPEPGALCELSPVSASHPVQALMESFTVLSGCASRGTTGLPQEVHVLNLRTAGQGPGQLQREVTLHLNPISSVHIHHKSVVFLLNSPHPLVWHLKTERLATGVSRLFLVSEGSVVQFSSANFSLTAETEERNFPHGNEHLLNWARKEYGAVTSFTELKIARNIYIKVGEDQVFPPKCNIGKNFLSLNYLAEYLQPKAAEGCVMSSQPQNEEVHIIELITPNSNPYSAFQVDITIDIRPSQEDLEVVKNLILILKCKKSVNWVIKSFDVKGSLKIIAPNSIGFGKESERSMTMTKSIRDDIPSTQGNLVKWALDNGYSPITSYTMAPVANRFHLRLENNAEEMGDEEVHTIPPELRILLDPGALPALQNPPIRGGEGQNGGLPFPFPDISRRVWNEEGEDGLPRPKDPVIPSIQLFPGLREPEEVQGSVDIALSVKCDNEKMIVAVEKDSFQASGYSGMDVTLLDPTCKAKMNGTHFVLESPLNGCGTRPRWSALDGVVYYNSIVIQVPALGDSSGWPDGYEDLESGDNGFPGDMDEGDASLFTRPEIVVFNCSLQQVRNPSSFQEQPHGNITFNMELYNTDLFLVPSQGVFSVPENGHVYVEVSVTKAEQELGFAIQTCFISPYSNPDRMSHYTIIENICPKDESVKFYSPKRVHFPIPQADMDKKRFSFVFKPVFNTSLLFLQCELTLCTKMEKHPQKLPKCVPPDEACTSLDASIIWAMMQNKKTFTKPLAVIHHEAESKEKGPSMKEPNPISPPIFHGLDTLTVMGIAFAAFVIGALLTGALWYIYSHTGETAGRQQVPTSPPASENSSAAHSIGSTQSTPCSSSSTA”: the “percentage of EdU-negative” value is 24.6 ± 1.9% in series [1] (setting [4]), 23.7 ± 2.4% in series [1] (setting [5]), 4.94 ± 0.63% in series [2] (setting [4]) and 5.484 ± 0.021% in series [2] (setting [5]).

As for “MTSKPHSDWIPYSVLDDEGRNLRQQKLDRQRALLEQKQKKKRQEPLMVQANADGRPRSRRARQSEEQAPLVESYLSSSGSTSYQVQEADSLASVQLGATRPTAPASAKRTKAAATAGGQGGAARKEKKGKHKGTSGPAALAEDKSEAQGPVQILTVGQSDHAQDAGETAAGGGERPSGQDLRATMQRKGISSSMSFDEDEEDEEENSSSSSQLNSNTRPSSATSRKSVREAASAPSPTAPEQPVDVEVQDLEEFALRPAPQGITIKCRITRDKKGMDRGMYPTYFLHLDREDGKKVFLLAGRKRKKSKTSNYLISVDPTDLSRGGDSYIGKLRSNLMGTKFTVYDNGVNPQKASSSTLESGTLRQELAAVCYETNVLGFKGPRKMSVIVPGMNMVHERVSIRPRNEHETLLARWQNKNTESIIELQNKTPVWNDDTQSYVLNFHGRVTQASVKNFQIIHGNDPDYIVMQFGRVAEDVFTMDYNYPLCALQAFAIALSSFDSKLACE”, the “percentage of EdU-negative” value came out at 24.8 ± 1.5% in series [1] (setting [9]), 29.6 ± 0.96% in series [1] (setting [10]), 4.99 ± 0.76% in series [2] (setting [9]) and 7.63 ± 0.81% in series [2] (setting [10]).

The values above are taken from the supplement of paper PMC11316812.
